Results: US20190002588A1 (NATIONAL UNIVERSITY CORPORATION CHIBA UNIVERSITY, published 2019)
Residue numbers refer to the chain shown, from its start. Numbers in names are those of the source.

B1: Humanized antibody No. 117 (antibody, human IgG2, kappa, V domains shown)
VH: QVQLVQSGAEVKKPGASVKVSCKASGYTFTDYEMHWVRQAPGQGLEWMGAIDPETGGTAYNQKFKGRATMTADTSTSTAYMELSSLRSEDTAVYYCADYDYDGFAYWGQGTLVTVSS
VL: DIVMTQSPLSLSITPGEQASISCRSSQSLVHSNGNTYLHWYLQKPGQSPQLLISKVSNRFSGVPDRFSGSGSGTDFTLKISRVEAEDVGVYFCSQNTHVPPLTFGGGTKVEIKR
notes: human IgG2 (V234A, G237A, C-terminal Lys deleted) / kappa; Expi293F, Protein A purified; also called HK2-6/L1-5
B2: Humanized antibody No. 118 (antibody, human IgG2, kappa, V domains shown)
VH: B1 VH with A68V, T74K
VL: B1 VL
notes: human IgG2 (V234A, G237A, C-terminal Lys deleted) / kappa; Expi293F, Protein A purified; also called HK2-9/L1-5
B3: Humanized antibody No. 124 (antibody, human IgG2, kappa, V domains shown)
VH: B1 VH with A16S, Y27G, T30S, A68V, M70I, T74K, S84R
VL: DIVMTQTPLSSPVTLGQPASISCRSSQSLVHSNGNTYLHWYQQRPGQPPRLLISKVSNRFSGVPDRFSGSGAGTDFTLKISRVEAEDVGVYFCSQNTHVPPLTFGGGTKVEIKR
notes: human IgG2 (V234A, G237A, C-terminal Lys deleted) / kappa; Expi293F, Protein A purified; also called HK1-6/L4-2
B4: Humanized antibody No. 121 (antibody, human IgG2, kappa, V domains shown)
VH: B1 VH with A16S, N61A, K65Q, A68V, M70I, T74K, S84R
VL: B3 VL
notes: human IgG2 (V234A, G237A, C-terminal Lys deleted) / kappa; Expi293F, Protein A purified; also called HA1-6/L4-2
B5: Humanized antibody No. 122 (antibody, human IgG2, kappa, V domains shown)
VH: B1 VH with A16S, N61A, K65Q, M70I, T74K, S84R
VL: B3 VL
notes: human IgG2 (V234A, G237A, C-terminal Lys deleted) / kappa; Expi293F, Protein A purified; also called HA1-4/L4-2
B6: Humanized antibody No. 123 (antibody, human IgG2, kappa, V domains shown)
VH: B1 VH with A16S, Y27G, T30S, A68V, M70I, T74K
VL: B3 VL
notes: human IgG2 (V234A, G237A, C-terminal Lys deleted) / kappa; Expi293F, Protein A purified; also called HK1-5/L4-2
B7: Humanized antibody No. 125 (antibody, human IgG2, kappa, V domains shown)
VH: B1 VH with A16S, Y27G, T30S, M70I, T74K, S84R
VL: B3 VL
notes: human IgG2 (V234A, G237A, C-terminal Lys deleted) / kappa; Expi293F, Protein A purified; also called HK1-4/L4-2
B8: Humanized antibody No. 126 (antibody, human IgG2, kappa, V domains shown)
VH: B1 VH with A16S, T30S, M48I, M70I, T74K, S84R, A97T
VL: B3 VL
notes: human IgG2 (V234A, G237A, C-terminal Lys deleted) / kappa; Expi293F, Protein A purified; also called HK1-A/L4-2
B9: Humanized antibody No. 127 (antibody, human IgG2, kappa, V domains shown)
VH: B1 VH with A68V
VL: B3 VL
notes: human IgG2 (V234A, G237A, C-terminal Lys deleted) / kappa; Expi293F, Protein A purified; also called HK2-5/L4-2
B10: Humanized antibody No. 128 (antibody, human IgG2, kappa, V domains shown)
VH: B1 VH
VL: B3 VL
notes: human IgG2 (V234A, G237A, C-terminal Lys deleted) / kappa; Expi293F, Protein A purified; also called HK2-6/L4-2
B11: Humanized antibody No. 129 (antibody, human IgG2, kappa, V domains shown)
VH: B1 VH with A68V, T74K
VL: B3 VL
notes: human IgG2 (V234A, G237A, C-terminal Lys deleted) / kappa; Expi293F, Protein A purified; also called HK2-9/L4-2
B12: Humanized antibody No. 131 (antibody, human IgG2, kappa)
heavy: QVQLVQSGSELKKPGASVKVSCKASGYTFTDYEMHWVRQAPGQGLEWMGAIDPETGGTAYNQKFKGRFVFSLDTSVSTAYLQISSLKAEDTAVYYCADYDYDGFAYWGQGTLVTVSSASTKGPSVFPLAPCSRSTSESTAALGCLVKDYFPEPVTVSWNSGALTSGVHTFPAVLQSSGLYSLSSVVTVPSSNFGTQTYTCNVDHKPSNTKVDKTVERKCCVECPPCPAPPAAAPSVFLFPPKPKDTLMISRTPEVTCVVVDVSHEDPEVQFNWYVDGVEVHNAKTKPREEQFNSTFRVVSVLTVVHQDWLNGKEYKCKVSNKGLPAPIEKTISKTKGQPREPQVYTLPPSREEMTKNQVSLTCLVKGFYPSDIAVEWESNGQPENNYKTTPPMLDSDGSFFLYSKLTVDKSRWQQGNVFSCSVMHEALHNHYTQKSLSLSPG
light: DIVMTQSPLSLPVTPGEPASISCRSSQSLVHSNGNTYLHWYLQKPGQSPQLLISKVSNRFSGVPDRFSGSGSGTDFTLKISRVEAEDVGVYFCSQNTHVPPLTFGGGTKVEIKRTVAAPSVFIFPPSDEQLKSGTASVVCLLNNFYPREAKVQWKVDNALQSGNSQESVTEQDSKDSTYSLSSTLTLSKADYEKHKVYACEVTHQGLSSPVTKSFNRGEC
notes: human IgG2 (V234A, G237A, C-terminal Lys deleted) / kappa; Expi293F, Protein A purified; also called HK3-2/L1-4
B13: Humanized antibody No. 132 (antibody, human IgG2, kappa)
heavy: B12 heavy
light: B12 light with I2V
notes: human IgG2 (V234A, G237A, C-terminal Lys deleted) / kappa; Expi293F, Protein A purified; also called HK3-2/L1-A
B14: Humanized antibody No. 133 (antibody, human IgG2, kappa)
heavy: B12 heavy
light: B12 light with P12S, V13I, P18Q
notes: human IgG2 (V234A, G237A, C-terminal Lys deleted) / kappa; Expi293F, Protein A purified; also called HK3-2/L1-5
B15: Humanized antibody No. 134 (antibody, human IgG2, kappa, V domains shown)
VH: QVQLVQSGSELKKPGASVKVSCKASGYTFTDYEMHWVRQAPGQGLEWMGAIDPETGGTAYNQKFKGRFVFSLDTSVSTAYLQISSLKAEDTAVYYCADYDYDGFAYWGQGTLVTVSS
VL: B3 VL
notes: human IgG2 (V234A, G237A, C-terminal Lys deleted) / kappa; Expi293F, Protein A purified; also called HK3-2/L4-2
B16: chimeric antibody prepared from Antibody A (antibody, human IgG2, kappa, V domains shown)
VH: QVQLQQSGAEVVRPGASVTLSCKASGYTFTDYEMHWVKQTPVHGLEWIGAIDPETGGTAYNQKFKGKAILTADKSSNTAYMELRSLTSEDSAVYYCTDYDYDGFAYWGQGTLVTVSA
VL: DVVMTQTPLSLPVSLGDQASISCRSSQSLVHSNGNTYLHWYLQKPGRSPKLLISKVSNRFSGVPDRFSGSGSGTDFTLKITRVEAEDLGVYFCSQNTHVPPLTFGAGTKLELKR
notes: VH and VL amino acid numbers 13 and 15 are deduced as for Antibody A

Biological target: T1, human Myl3-His (human, UniProt P08590 2-195, limits assumed)
T1 construct: Made in E. coli; the GST tag was cleaved with PreScission Protease
Test: ELISA, human Myl3-His coated, anti-human IgG-HRP
Procedure: (§1) The binding ability against human Myl9 was evaluated following the steps below by ELISA. Human Myl3-His and human Myl9-His were coated onto the wells of a 96-well plate (Nunc). After an overnight incubation at 4° C., the wells were blocked at room temperature for one hour with 1× Block Ace (DS Pharma Biomedical Co., Ltd.). After washing three times with 0.02% Tween 20/PBS, seven serial dilutions by six folds of the chimeric and humanized antibodies were made from a concentration of 10 μg/mL and added to the wells. After incubation at room temperature for one hour and washing three times, horseradish peroxidase-labeled anti-human IgG antibody (Jackson ImmunoResearch Laboratories) was added, and this was incubated at room temperature for one hour. After washing 5 times, TMBZ (3,3′,5,5′-tetramethylbenzidine) solution was added to the wells, and this was incubated for 5-20 minutes at room temperature. An equal amount of reaction quenching solution (2N H₂SO₄) was added to the wells, and absorbance at 450 nm was read with a microplate reader (PerkinElmer).

T1 sequence (P08590 2-195 limits assumed): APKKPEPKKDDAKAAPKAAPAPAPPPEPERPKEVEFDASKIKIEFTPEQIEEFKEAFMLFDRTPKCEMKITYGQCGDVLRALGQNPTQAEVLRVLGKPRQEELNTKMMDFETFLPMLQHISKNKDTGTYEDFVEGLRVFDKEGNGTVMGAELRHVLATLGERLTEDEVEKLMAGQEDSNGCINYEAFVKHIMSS

| Binder | binding result |
| --- | --- |
| B1 | no binding (tested: 10 µg/mL) |
| B2 | no binding (tested: 10 µg/mL) |
| B3 | no binding (tested: 10 µg/mL) |
| B4 | no binding (tested: 10 µg/mL) |
| B5 | no binding (tested: 10 µg/mL) |
| B6 | no binding (tested: 10 µg/mL) |
| B7 | no binding (tested: 10 µg/mL) |
| B8 | no binding (tested: 10 µg/mL) |
| B9 | no binding (tested: 10 µg/mL) |
| B10 | no binding (tested: 10 µg/mL) |
| B11 | no binding (tested: 10 µg/mL) |
| B12 | no binding (tested: 10 µg/mL) |
| B13 | no binding (tested: 10 µg/mL) |
| B14 | no binding (tested: 10 µg/mL) |
| B15 | no binding (tested: 10 µg/mL) |

Biological target: T2, human Myl9-His (human, UniProt P24844 2-172, limits assumed)
T2 construct: Made in E. coli; the GST tag was cleaved with PreScission Protease
T2 sequence: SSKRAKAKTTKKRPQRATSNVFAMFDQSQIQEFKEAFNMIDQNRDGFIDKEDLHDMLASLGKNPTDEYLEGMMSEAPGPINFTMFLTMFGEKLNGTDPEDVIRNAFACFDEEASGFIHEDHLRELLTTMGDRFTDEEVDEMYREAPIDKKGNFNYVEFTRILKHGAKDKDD
Test: ELISA, human Myl9-His coated, anti-human IgG-HRP
Procedure: as §1

| Binder | binding result |
| --- | --- |
| B16 | binds |
| B1 | binds |
| B2 | binds |
| B3 | binds |
| B4 | binds |
| B5 | binds |
| B6 | binds |
| B7 | binds |
| B8 | binds |
| B9 | binds |
| B10 | binds |
| B11 | binds |
| B12 | binds |
| B13 | binds |
| B14 | binds |
| B15 | binds |

Biological target: T3, human Myl12a-His (human, UniProt P19105 1-171)
T3 construct: Made in E. coli; GST tag cleaved with PreScission Protease; DTT-treated monomer
T3 sequence: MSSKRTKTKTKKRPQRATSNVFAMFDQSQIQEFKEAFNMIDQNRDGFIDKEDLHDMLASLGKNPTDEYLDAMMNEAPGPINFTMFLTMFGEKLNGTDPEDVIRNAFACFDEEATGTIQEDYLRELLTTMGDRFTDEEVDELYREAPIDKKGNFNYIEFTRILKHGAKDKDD
Test: ELISA, human Myl12a-His coated, anti-human IgG-HRP
Procedure: (§2) The binding ability of chimeric and humanized antibodies prepared from Antibody A against human Myl12a and Myl12b was evaluated following the steps below by ELISA. Human Myl3-His, human Myl9-His, human Myl12a-His and human Myl12b-His were coated onto the wells of a 96-well plate (Nunc), respectively. After an overnight incubation at 4° C., the wells were blocked at room temperature for one hour with 1× Block Ace (DS Pharma Biomedical Co., Ltd.). After washing three times with 0.02% Tween 20/PBS, the chimeric and humanized antibodies were diluted at the concentration of 0.01, 0.1 and 1 μg/mL, respectively and added to the wells. After incubation at room temperature for one hour and washing three times, horseradish peroxidase-labeled anti-human IgG antibody (Jackson ImmunoResearch Laboratories) was added, and this was incubated at room temperature for one hour. After washing 5 times, TMBZ (3,3′,5,5′-tetramethylbenzidine) solution was added to the wells, and this was incubated for 5-20 minutes at room temperature. An equal amount of reaction quenching solution (2N H₂SO₄) was added to the wells, and absorbance at 450 nm was read with a microplate reader (Thermo Scientific).

| Binder | binding result |
| --- | --- |
| B16 | binds |
| B1 | binds |
| B2 | binds |
| B3 | binds |
| B4 | binds |
| B5 | binds |
| B6 | binds |
| B7 | binds |
| B8 | binds |
| B9 | binds |
| B10 | binds |
| B11 | binds |
| B12 | binds |
| B13 | binds |
| B14 | binds |
| B15 | binds |

Biological target: T4, human Myl12b-His (human, UniProt O14950 1-172)
T4 construct: Made in E. coli; GST tag cleaved with PreScission Protease; DTT-treated monomer
T4 sequence: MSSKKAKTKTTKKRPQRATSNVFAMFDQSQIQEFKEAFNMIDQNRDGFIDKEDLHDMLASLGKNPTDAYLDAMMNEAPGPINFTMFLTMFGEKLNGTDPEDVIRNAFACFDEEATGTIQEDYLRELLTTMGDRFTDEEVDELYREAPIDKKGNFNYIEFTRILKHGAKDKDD
Test: ELISA, human Myl12b-His coated, anti-human IgG-HRP
Procedure: as §2

| Binder | binding result |
| --- | --- |
| B16 | binds |
| B1 | binds |
| B2 | binds |
| B3 | binds |
| B4 | binds |
| B5 | binds |
| B6 | binds |
| B7 | binds |
| B8 | binds |
| B9 | binds |
| B10 | binds |
| B11 | binds |
| B12 | binds |
| B13 | binds |
| B14 | binds |
| B15 | binds |

Biological target: T1, human Myl3-His
Test: ELISA at 0.01, 0.1 and 1 µg/mL, human Myl3-His coated, anti-human IgG-HRP
Procedure: as §2

| Binder | binding result |
| --- | --- |
| B16 | no binding (tested: 1 µg/mL) |
